In paper PMC5383250:

What was measured:
[1] = biological target: RNase J2 (Bacillus subtilis) (UniProt O31760); conditions: cited from earlier work
[2] = biological target: E. faecalis RNase J1 (Enterococcus faecalis (strain OG1RF)); test: SPR; Biacore T100; E. faecalis RNase J1 immobilized on a CM5 sensor surface; J2 proteins 400 to 50 nM in duplicate; fitted to the 1:1 binding model

RNase J1, sequence (Q45493 whole entry): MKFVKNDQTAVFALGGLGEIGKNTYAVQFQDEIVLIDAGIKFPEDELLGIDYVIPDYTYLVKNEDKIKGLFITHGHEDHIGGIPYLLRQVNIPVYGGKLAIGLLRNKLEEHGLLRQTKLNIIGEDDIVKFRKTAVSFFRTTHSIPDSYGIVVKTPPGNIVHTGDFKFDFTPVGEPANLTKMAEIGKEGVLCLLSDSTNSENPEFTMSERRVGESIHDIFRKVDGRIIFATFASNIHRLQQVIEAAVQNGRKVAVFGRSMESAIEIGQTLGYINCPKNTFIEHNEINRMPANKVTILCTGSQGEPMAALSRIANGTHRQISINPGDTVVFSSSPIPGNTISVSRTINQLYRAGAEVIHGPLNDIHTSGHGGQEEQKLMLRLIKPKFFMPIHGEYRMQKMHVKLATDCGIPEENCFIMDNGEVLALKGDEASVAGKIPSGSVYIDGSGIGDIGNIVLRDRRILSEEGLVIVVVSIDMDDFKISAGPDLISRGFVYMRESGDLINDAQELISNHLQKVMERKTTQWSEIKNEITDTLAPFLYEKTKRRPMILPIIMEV

Row | Substance | Kd [1] [nM] | Kd [2] [nM]
1 | RNase J1 (from UniProt Q45493) | 80 | 
2 | E. faecalis RNase J2 H69A (enzyme) |  | 81
3 | E. faecalis RNase J2 H71A (enzyme) |  | 89
